Assay results published in the supplement of paper PMC9732359.
± gives the uncertainty stated by the source.

Test: protein stability index of a GFP-peptide fusion (yeast GPS) (PSI 1-4); higher = more stable; sorted into four equal gates, so the index is relative within each strain
In short: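 Sequencing reads from sorted gates were used to score each peptide. The library consisted of tiled 17-residue yeast protein peptides fused downstream of GFP on a Cherry-expressing plasmid, pooled and carried in yeast. Mid-log cultures in leucine-free medium were split into four equal gates by GFP/Cherry ratio, and each gate's plasmids were PCR-amplified and Illumina-sequenced. The protein stability index adds up, over all gates, the read frequency multiplied by the gate number.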

Row | Sequence | protein stability index (doa10∆) | protein stability index (pdr5∆) | protein stability index (san1∆) | protein stability index (ubr1∆)
1 | ISLLCKNFKGIEEIEYN [PCI8] | 2.94 ± 0.082 | 3.31 ± 0.075 | 3.11 ± 0.04 | 3.01 ± 0.061
2 | FEYLATVMYQRRSKMNP [PRE4] | 2.11 ± 0.12 | 2.72 ± 0.21 | 2.6 ± 0.15 | 2.57 ± 0.28
3 | PPEEFSNTIDELSTDII [SRB7] | 3.1 ± 0.057 | 3.16 ± 0.068 | 3.26 ± 0.069 | 3.05 ± 0.06
4 | IFGGAGGVPTTSFGQPQ [YOR098C/NUP1] | 1.57 ± 0.061 | 1.58 ± 0.074 | 1.55 ± 0.11 | 1.4 ± 0.053
5 | LRGEYNDLQSETKTKKE [SMC4] |  | 3.4 ± 0.087 | 3.24 ± 0.072 | 2.82 ± 0.066
6 | KAKSVVNDVEELGEIID [RMP1] | 3.4 ± 0.14 |  | 2.8 ± 0.26 | 
7 | TEKNREIYKQLNDRQEE [YIL149C/MLP2] | 3.42 ± 0.073 | 3.41 ± 0.063 | 3.57 ± 0.042 | 3.12 ± 0.057
8 | TLIIDQVRKDLGNVIVP [NUT1] | 3.07 ± 0.29 |  | 3.12 ± 0.21 | 2.89 ± 0.14
9 | VAGAGAASGAAAAGGDA [RPP1B] | 3.09 ± 0.18 | 2.79 ± 0.092 | 3.22 ± 0.22 | 2.62 ± 0.078
10 | GMGGGMPDMNEMMKMMQ [SRP54] | 3.17 ± 0.21 | 3.51 ± 0.23 | 3.58 ± 0.083 | 3.35 ± 0.081
11 | DVQVDAEEKREAVIDEK [ITC1] |  | 2.32 ± 0.18 |  | 2.6 ± 0.13
12 | QQLQVLARYLKMDLDNG [FAS2] | 1.9 ± 0.13 | 2.04 ± 0.089 | 2.78 ± 0.079 | 2.31 ± 0.051
13 | GNIVKEFENKFQNSYKP [YMR129W/POM152] | 3.35 ± 0.081 | 3.14 ± 0.13 | 3.37 ± 0.053 | 3.39 ± 0.098
14 | VPMKEENLEESFLSKHA [SSN2] | 3.43 ± 0.094 | 3.69 ± 0.14 | 2.98 ± 0.2 | 3.35 ± 0.25
15 | IHSLIPVAKWFVKFITY [SIN4] | 2.7 ± 0.048 | 2.52 ± 0.04 | 2.77 ± 0.044 | 2.79 ± 0.04
16 | ELDKREDMIDQVSKKLS [SMC3] | 3.12 ± 0.061 | 3 ± 0.082 | 2.93 ± 0.075 | 2.81 ± 0.096
17 | QLKAEEKKILNQFLKIK [SMC1] | 2.8 ± 0.045 | 3.19 ± 0.1 | 2.84 ± 0.09 | 2.99 ± 0.078
18 | AHFLSLSFTPTTVIGIR [RPN2] | 1.57 ± 0.043 | 1.56 ± 0.041 | 1.28 ± 0.083 | 1.27 ± 0.031
19 | QLKNGLLEKYNTNELKE [MTR3] | 2.97 ± 0.055 | 2.69 ± 0.056 | 3.08 ± 0.05 | 2.65 ± 0.045
20 | AKHAVSEGTRAVTKYSS [HTB1] | 3 ± 0.08 | 3.21 ± 0.11 | 3.41 ± 0.075 | 3.12 ± 0.09
21 | IIHFHSHPEKRMIPPRM [SSN3] | 3.09 ± 0.07 | 2.95 ± 0.067 | 3.06 ± 0.065 | 3.13 ± 0.049
22 | DTYRTLMEEIESLKKEL [YIL149C/MLP2] | 3.16 ± 0.1 | 3.36 ± 0.092 | 3.4 ± 0.07 | 3.35 ± 0.068
23 | HMATALQIAQLTLKHRQ [RPN10] | 1.58 ± 0.13 | 1.8 ± 0.084 | 1.59 ± 0.11 | 1.62 ± 0.068
24 | AGVNNDNTKESKDVKMN [RTT102] | 3.1 ± 0.25 |  |  | 2.35 ± 0.24
25 | RDKAGRLAEVNLKDLNN [RPO21] | 3.15 ± 0.11 | 2.75 ± 0.083 | 2.55 ± 0.086 | 2.79 ± 0.11
26 | VHDKILEDLVFPTEIVG [RPS7A] | 3.3 ± 0.13 | 3.15 ± 0.076 | 3.27 ± 0.061 | 3.31 ± 0.1

Row | Sequence | protein stability index (doa10∆) | protein stability index (pdr5∆) | protein stability index (san1∆) | protein stability index (ubr1∆)
27 | EDVALNEQVKKFFLNNV [NAS6] | 2.64 ± 0.047 | 2.5 ± 0.058 | 2.44 ± 0.051 | 2.88 ± 0.042
28 | TKAIQGCSKICDLSSKF [YCS4] | 3.15 ± 0.083 | 3.2 ± 0.069 | 3.37 ± 0.037 | 3.06 ± 0.098
29 | SDKTIVPTSIQTKRWPT [SIN4] | 2.32 ± 0.059 | 2.6 ± 0.055 | 2.35 ± 0.054 | 2.77 ± 0.048
30 | NNNETSKPAFSFGAKSD [YJL041W/NSP1] | 2.93 ± 0.11 | 3.1 ± 0.083 | 3.15 ± 0.067 | 3.61 ± 0.29
31 | TRKSLNNAVRFSKQCLI [ECM29] | 2.15 ± 0.06 | 2.96 ± 0.061 | 2.42 ± 0.06 | 2.56 ± 0.05
32 | HTLDIINVLTDQNPIQV [RPS5] | 1.88 ± 0.066 | 2.33 ± 0.077 | 2.12 ± 0.096 | 1.86 ± 0.055
33 | ANLPWLGKAQNWAKFTA [RPN2] | 3.34 ± 0.085 | 3.39 ± 0.091 | 3.11 ± 0.087 | 3.52 ± 0.082
34 | PLLDIVLKADRSWNEPS [YML103C/NUP188] | 2.02 ± 0.15 | 2.86 ± 0.26 |  | 3.12 ± 0.11
35 | APPLENENSNCLLSIPK [YML103C/NUP188] | 1.86 ± 0.058 | 1.92 ± 0.057 | 1.65 ± 0.16 | 1.71 ± 0.059
36 | ELDRAAMNDKDLTMGQV [RPO21] | 3.29 ± 0.17 | 3.31 ± 0.14 | 2.8 ± 0.13 | 3.12 ± 0.097
37 | EATSNTNSEDKLSKVQL [MED4] | 2.82 ± 0.13 | 2.92 ± 0.071 | 2.77 ± 0.087 | 2.93 ± 0.075
38 | EGNEKLAAVPAAGPASA [RPP2A] | 2.06 ± 0.061 | 2.23 ± 0.063 | 2.17 ± 0.09 | 2.79 ± 0.063
39 | AQLDGRIGVLQARMMQQ [NSL1] | 2.21 ± 0.055 | 2.46 ± 0.043 | 2.46 ± 0.056 | 2.61 ± 0.048
40 | AENMLEELRGQQTEHET [SMC4] | 3.02 ± 0.13 | 2.97 ± 0.2 | 3.32 ± 0.069 | 3.4 ± 0.1
41 | SPSTSANVPSTATTGKR [RPN4] | 2.16 ± 0.18 | 2.2 ± 0.1 | 2.62 ± 0.11 | 2.65 ± 0.096
42 | KAPEQFIENFLTNDTFE [YML103C/NUP188] | 2.84 ± 0.12 | 3.16 ± 0.1 | 2.93 ± 0.12 | 3.02 ± 0.075
43 | SQLLLERLMISSDAFEV [RET1] | 1.8 ± 0.08 | 2.4 ± 0.044 | 1.98 ± 0.058 | 1.86 ± 0.049
44 | VEYVDPTVNRVPNYEVS [RPN7] | 3.37 ± 0.26 | 3.2 ± 0.16 | 2.92 ± 0.25 | 3.8 ± 0.15
45 | KQEIMMSDLFTFDWFIK [ISW2] | 2.85 ± 0.075 | 2.6 ± 0.055 | 2.46 ± 0.07 | 2.9 ± 0.047
46 | LTNLLSQLNIQLSQDEH [SRP72] | 3.01 ± 0.048 | 3.03 ± 0.051 | 3.21 ± 0.046 | 3.09 ± 0.042
47 | ASSSPSSTDFSTCIVSL [ECM29] | 2.81 ± 0.081 | 2.26 ± 0.07 | 2.01 ± 0.1 | 1.84 ± 0.059
48 | VSNNEANTPSIPTNPVD [SWI3] | 3.14 ± 0.074 | 3.2 ± 0.09 | 2.97 ± 0.082 | 3.08 ± 0.065
49 | RGFFHLNEALLQCPMLY [CSN12] | 2.06 ± 0.071 | 2.2 ± 0.058 | 1.9 ± 0.13 | 1.99 ± 0.056
50 | NAKDKERLQLLEDVVGA [SMC3] | 3.32 ± 0.19 | 3.38 ± 0.13 | 3.01 ± 0.071 | 3.21 ± 0.11
51 | LTQLLSMMSDGIEHFDI [RPO31] | 2.93 ± 0.073 | 3.05 ± 0.085 | 3.1 ± 0.052 | 2.72 ± 0.089
52 | VLLDARDIEKITSLYAL [CDC53] | 1.69 ± 0.038 | 1.99 ± 0.034 | 1.72 ± 0.06 | 2.02 ± 0.029
